T1: human ENTPD3 (Ectonucleoside triphosphate diphosphohydrolase 3) expressed on cells (human, UniProt O75355 1-529)
T1 sequence: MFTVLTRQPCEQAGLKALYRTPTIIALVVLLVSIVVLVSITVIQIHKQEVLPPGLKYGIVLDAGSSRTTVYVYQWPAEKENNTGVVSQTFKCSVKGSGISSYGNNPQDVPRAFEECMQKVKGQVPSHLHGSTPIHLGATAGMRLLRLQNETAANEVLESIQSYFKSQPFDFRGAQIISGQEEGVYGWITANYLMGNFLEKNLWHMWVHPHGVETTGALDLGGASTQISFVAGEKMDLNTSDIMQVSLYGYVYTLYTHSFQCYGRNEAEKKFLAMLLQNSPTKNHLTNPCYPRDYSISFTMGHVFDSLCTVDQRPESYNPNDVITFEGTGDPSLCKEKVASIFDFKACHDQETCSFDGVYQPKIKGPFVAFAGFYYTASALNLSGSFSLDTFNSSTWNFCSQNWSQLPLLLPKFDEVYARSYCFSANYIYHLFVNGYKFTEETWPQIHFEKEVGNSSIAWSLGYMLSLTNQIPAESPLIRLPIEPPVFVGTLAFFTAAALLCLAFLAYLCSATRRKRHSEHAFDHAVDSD

T2: murine ENTPD3 expressed on HEK293T cells (mouse, UniProt Q8BFW6 1-529)
T2 construct: Transiently transfected HEK293T cells (vector with eGFP behind a P2A site); also called mENTPD3; mouse ENTPD3
T2 sequence: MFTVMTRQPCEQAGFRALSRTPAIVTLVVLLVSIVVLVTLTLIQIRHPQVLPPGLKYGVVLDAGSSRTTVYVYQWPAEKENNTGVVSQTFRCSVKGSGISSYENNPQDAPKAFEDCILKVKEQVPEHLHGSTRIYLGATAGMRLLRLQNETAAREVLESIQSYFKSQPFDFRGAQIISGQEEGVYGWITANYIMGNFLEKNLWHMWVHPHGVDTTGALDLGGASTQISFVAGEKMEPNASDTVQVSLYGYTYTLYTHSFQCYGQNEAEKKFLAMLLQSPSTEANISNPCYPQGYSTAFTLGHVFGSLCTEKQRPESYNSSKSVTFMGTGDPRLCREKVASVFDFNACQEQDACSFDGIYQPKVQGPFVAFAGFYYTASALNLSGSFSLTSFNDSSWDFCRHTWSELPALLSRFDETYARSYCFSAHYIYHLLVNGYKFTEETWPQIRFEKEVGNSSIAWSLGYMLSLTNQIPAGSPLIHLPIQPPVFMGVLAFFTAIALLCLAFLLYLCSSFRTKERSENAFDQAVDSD

B1: CAR 2-CD8 (antigen binding domain from binder B2, CD8 hinge) (other)
chain: QVQLVQSGGGVVQPGRSLRLSCAASGFTFSSYAMSWVRQAPGKGLEWVSAISGSGGNTNYADSVKGRFTISRDNSKNTLYLQMNSLRAEDTAVYYCAKGGSTSSGYRFDYWGQGTLVTVSSGGGGSGGGGSGGGGSQLVLTQSPSASASLGASVKLTCTLSSGHSNYAIAWHQQQPEKGPRFLMNVNRDGSYTKGDGIPDRFSGSSSGAERYLTISSLQSDDEADYYCQTWGTGVQVFGGGTKLTVLTRFVPVFLPAKPTTTPAPRPPTPAPTIASQPLSLRPEACRPAAGGAVHTRGLDFACDIYIWAPLAGTCGVLLLSLVITLYCNHRPPALEWVRSKRSRLLHSDYMNMTPRRPGPTRKHYQPYAPPRDFAAYRSASCTRVKFSRSADAPAYQQGQNQLYNELNLGRREEYDVLDKRRGRDPEMGGKPRRKNPQEGLYNELQKDKMAEAYSEIGMKGERRRGKGHDGLYQGLSTATKDTYDALHMQALPPR
B2: hg012-E4 scFv (scFv)
scFv: QVTLKESGGGLVQPGRSLRLSCAASGFTFDDYAMHWVRQAPGKGLEWVSGISWNSGSIGYADSVKGRFTISRDNAKNSLYLQMNSLRAEDTALYYCAKGANYDILTGYRKDNWFDPWGQGTLVTVSSGSASAPKLEEGEFSEARVDIVMTQSPATLSLSPGERATLSCRASQSVGSSLAWFQQKPGQAPRLLIYDASNRATGIPARFSGSGSGTDFTLTISSLEPEDFAVYYCQQRSNWPPYTFGQGTKLEIKRTVAAPSVAAAGSEQKLISEEDLSHHHHHH
notes: Soluble scFv made in E. coli, with Myc tag and His tag
B3: hg012-B7 scFv (scFv)
scFv: QVQLQQSGAEVKKPGASVKVSCKASGYTFTSYAMHWVRQAPGQRLEWMGWINAGNGNTKYSQKLQGRVTITRDTSASTAYMELSSLRSEDTAVYYCARDSGYDLFDYWGQGTLVTVSSGSASAPKLEEGEFSEARVQAVVTQEPSFSVSPGGTVTLTCGLTSGSVSTTYYPSWYQQTPGQTPRTLIYKTNLRSPGVPDRFSGSILGNKAALTITGAQADDDSDYYCLLYMGSGVWVFGGGTRLTVLGQPKAAPSVTLFPPSSAAAGSEQKLISEEDLSHHHHHH
notes: as for B2
B4: hg012-C8 scFv (scFv)
scFv: QVTLKESGGGLVQPGRSLRLSCAASGFTFDDYAMHWVRQAPGKGLEWVSGISWNSGSIGYADSVKGRFTISRDNAKNSLYLQMNSLRAEDTALYYCAKGANYDILTGYRKDNWFDPWGQGTLVTVSSGSASAPKLEEGEFSEARVDIVMTQTPSTLSASVGDRVTITCRASQTISNWLAWYQQKPGKAPKLLIYKASTLESGVPSRFSGTGSGTEFTLTISSLQPDDFATYFCQQYHSYSRTFGQGTKVDVARTVAAPSVAAAGSEQKLISEEDLSHHHHHH
notes: as for B2
B5: hg012-C1 scFv (scFv)
scFv: QVQLVQSGAEVKKPGESLKISCKGSGYSFTSYWIGWVRQMPGKGLEWMGIIYPGDSGTRYSPSFQGQVTISADKSISTAYLQWSSLKASNTAMYYCARQQGAGAFDIWGQGTMVTVSSGSASAPKLEEGEFSEARVQSALTQPPSASGSPGQSVTISCTGTSRDVGGYNYVSWYQQHPGKAPKLILYEVTKRPSGVPDRFSGSKSGNTASLTISGLQAEDEADYYCSSYTSSSTVVFGGGTKLTVLGQPKAAPSVTLFPPSSAAAGSEQKLISEEDLSHHHHHH
notes: as for B2
B6: hg012-D3 scFv (scFv)
scFv: QVQLVQSGGGLVQPGRSLRLSCAASGFTFDDYAMHWVRQAPGKGLEWVSGISWNSGSIGYADSVKGRFTISRDNAKNSLYLQMNSLRAEDTALYYCAKGANYDILTGYEYWGQGTLVTVSSGSASAPKLEEGEFSEARVQAVVTQEPSLTVSPGETVTLTCGSSTGAVTSDHHPYWFQQKPGQVPRTLMHDTSTRYSWTPARFSGSIVGGKAALTLSGAQPEDEAEYHCFLYYSGTAIFGGGTKLTVLSQPKAAPSVTLFPPSSAAAGSEQKLISEEDLSHHHHHH
notes: as for B2
B7: hg012-C6 scFv (scFv)
scFv: EVQLVQSGGGLVQPGRSLRLSCTASGFTFGDYAMSWVRQAPGKGLEWVGFIRSKAYGGTTEYAASVKGRFTISRDDSKSIAYLQMNSLKTEDTAVYYCTRVPVVAGWYNWFDPWGQGTLVTVSSGSASAPKLEEGEFSEARVQSVLTQPPSASGTPGQRVTISCSGSSSNIGSNYVYWYQQLPGTAPKLLIYRNNQRPSGVPDRFSGSKSGNTASLTVSGLQAGDEADYYCSSYAGSNNVVFGGGTKLAVLGQPKAAPSVTLFPPSSAAAGSEQKLISEEDLSHHHHHH
notes: as for B2
B8: hg012-A8 scFv (scFv)
scFv: QVTLKESGGGLVQPGRSLRLSCAASGFTFDDYAMHWVRQAPGKGLEWVSGISWNSGSIGYADSVKGRFTISRDNAKNSLYLQMNSLRAEDTALYYCAKGANYDILTGYRKDNWFDPWGQGTLVTVSSGSASAPKLEEGEFSEARVLPVLTQPPSASGTPGQKVTISCSGSSSNIGSNYVFWYEQLPGAAPKLLMYSSNQRPSGVPDRFSGSKSGTSASLAISGLRSEDEADYYCAAWDDSLSGWVFGGGTKLTVLGQPKAAPSVTLFPPSSAAAGSEQKLISEEDLSHHHHHH
notes: as for B2
B9: hg012-F10 scFv (scFv)
scFv: QMQLVQSGGGVVQPGRSLRLSCAASGFTFSSYGMHWVRQAPGKGLERVAVISYDGSNKYYADSVKGRFTISRDNSKNTLYLQMNSLRAEDTALYYCAKDHHPYGSSDSFDYWGQGTLVTVSSGSASAPKLEEGEFSEARVQAVVTQEPSLTVSPGGTVTLTCGSSTGAVTRGHYPYWLQQKPGQAPRTLIYDTVKKHSWTPARFSGSLVGGKAALTLSGAQPEDEADYYCLLSFIDTRYPARYVFGTGTKVTVLGQPKANPTVTLFPPSSAAAGSEQKLISEEDLSHHHHHH
notes: as for B2

Target: T1, human ENTPD3 (Ectonucleoside …)
Assay: cell-based or functional assay

Row | Fold Change in IFN-γ secretion (hIsMT/T cell co-culture 48 hrs) | Fold Change in IFN-γ secretion (hIsMT/T cell co-culture 72 hrs) | Binder
1 | 269 fold, relative to the mock CD8 T cells condition | 294 fold, relative to the mock CD8 T cells condition | B1

Target: T1, human ENTPD3 (Ectonucleoside …)
Assay: cell-based or functional assay
Remark: another data set of the same source

Row | Fold Change in TNF-α secretion (hIsMT/T cell co-culture 48 hrs) | Fold Change in TNF-α secretion (hIsMT/T cell co-culture 72 hrs) | Binder
2 | 521 fold, relative to the mock CD8 T cells condition | 568 fold, relative to the mock CD8 T cells condition | B1

Target: T1, human ENTPD3 (Ectonucleoside …)
Assay: flow cytometry; soluble scFv on transfected HEK293T cells; anti-His PE
Procedure: (§1) scFv binders initially obtained by phage display cell panning were screened first for recognition of ENTPD3 expressed on cells. Therefore, soluble scFv were produced in E. coli and used to stain HEK293T cells transiently transfected with a vector expressing the recombinant protein and eGFP downstream separated by a P2A site. Secondary staining was performed by PE staining the His-Tag of soluble scFv. Cells were measured in flow cytometry for GFP (antigen expression) and PE (scFv binding).

Row | binding result | Binder
3 | binds | B2
4 | binds | B3
5 | binds | B4
6 | binds | B5
7 | binds | B6
8 | binds | B7

Target: T2, murine ENTPD3 expressed on HEK293T cells
Assay: as above
Procedure: as §1

Row | binding result | Binder
9 | no binding | B2
10 | no binding | B3
11 | no binding | B4
12 | no binding | B5
13 | no binding | B8
14 | no binding | B9
15 | no binding | B6
16 | no binding | B7
